From patent publication US20050095613

Columns and labels:
[1] = target: T1, LEHD peptide substrate
T1 chain: LEHD

[2] = target: T2, WEHD peptide substrate
T2 chain: WEHD

[3] = target: T3, DQMD peptide substrate
T3 chain: DQMD

[4] = target: T4, DEVD peptide substrate
T4 chain: DEVD

B1: human CARD-13 (protein)
chain: MADKKPSKEDPVNMVKLLARNVLDGILDDLMENNVLNTEELRNLGKGLNFMVNNAGNLVDNITEKAQMAGKILKDRLLSHPKQLSLEYQRESEDQESEESSASSSSSTESEEENEESKDEERAASAHSMAVPPTGLPRWWQAASKMAADHFQDGGEPRVLCPGVPGLTDSKERNLGPCAPLEIQGAQPSGRLKLCPHAHFRELKTKRADEIYPVMEKEGRTRLALIICNKEFHYLLNRNGSELDLLGMQDLLETLGYSVVIEENLTAQEMETALRQFAARPEHQSSDSTSLVFMSHGILNGICGTKHWDQEPDVLHDDTIFEIFNNRNCRSLRDKPKVIIMQACRGSGAGIVWFTTDSGKASAETHGQLLQSSICNDAVTKAHVEKDFIAFKSSTPHNVSWRHEISGSVFISQIIYYFKEYSWSHHLEEIFRKVQRSFETPNVVTQLPTIERLSMTRYFYLFPGN
- cleavage of peptide substrate (caspase activity) [1]: It also had some activity against LEHD peptide substrate
- cleavage of peptide substrate (caspase activity) [2]: This purified CARD-13 cleaved WEHD peptide substrates, as does caspase-1
- cleavage of peptide substrate (caspase activity) [3]: it did not cleave DEVD peptide substrate or DQMD peptide substrate
- cleavage of peptide substrate (caspase activity) [4]: it did not cleave DEVD peptide substrate or DQMD peptide substrate
